Paper PMC8699488, “Side-by-Side Comparison of Five Chelators for ^89Zr-Labeling of Biomolecules: Investigation of Chemical/Radiochemical Properties and Complex Stability” (Cancers, 2021)

Experiments:
[1] = Determination of logD(7.4), distribution between n-octanol and phosphate buffer pH 7.4; assay type: physicochemical; details: n-octanol / 0.05-M phosphate buffer pH 7.4; 89Zr-labeled peptide-chelator conjugate
Method: To a mixture of 1-octanol (800 µL) and 0.05-M phosphate buffer (775 µL, pH 7.4), a solution of the respective ^89Zr-labeled peptide conjugate (5µL of the before-obtained product solution, 0.8–1.2 MBq, 0.37–0.45 nmol) was added. The mixture was vigorously shaken for two minutes. Afterwards, the phases were separated by centrifugation. Two hundred microliters of each, the organic and the aqueous, phase were measured in a gamma counter. Each experiment was performed at least thrice, each in duplicate.
The logD(7.4) values of the ^89Zr-labeled peptide–chelator conjugates were determined by their distribution coefficient between n-octanol and phosphate buffer at pH 7.4.

[2] = EDTA-based 89Zr complex challenge experiments (relative kinetic inertness, radio-HPLC); assay type: physicochemical; details: 10,000 eq. of EDTA, pH 7.0, 25 °C, transchelation monitored for up to 54 h by radio-HPLC
Method: For each challenge experiment, three separate solutions of EDTA (14.61 mg, 50 µmol EDTA) in HEPES buffer (0.25 M, pH = 7.0, 380 µL) were prepared. The pH of the solutions was adjusted to pH 7.0 by the addition of a NaOH solution (30%, 12.5 µL), and Tracepur water (7.5 µL) was added to give a final volume of 400 µL of the EDTA solutions. To these solutions was added a solution of the respective ^89Zr-labeled peptide conjugate (5 nmol, 9.7–13.9 MBq), and the solutions were kept at 25 °C over the course of the experiment. At predefined time points, each solution was analyzed by analytical radio-HPLC for determination of the amount of ^89Zr transchelation. Each experiment was performed at least twice, each in triplicate.
In order to directly compare and assess the kinetic inertness of the formed ^89Zr complexes of [^89Zr]Zr-29–[^89Zr]Zr-32, we performed complex challenge experiments using EDTA as the challenging agent of [^89Zr]Zr-30–[^89Zr]Zr-32 in comparison to [^89Zr]Zr-29 serving as the gold standard. […]

integrin αvβ3 = tested on: integrin αvβ3; set-up: method as in PMID 28074920; details: cited from earlier work

Compound | logD [1] | kinetic inertness of the 89Zr complex against EDTA challenge [2] | affinity for integrin αvβ3 (integrin αvβ3)
CC(=O)N(O)CCCCCNC(=O)CCC(=O)N(O)CCCCCNC(=O)CCC(=O)N(O)CCCCCNC(=O)CCC(=O)NCc1ccc(-c2nncc3c2CCC(OC(=O)NCCCC[C@@H]2NC(=O)[C@@H](Cc4ccccc4)NC(=O)[C@H](CC(=O)O)NC(=O)CNC(=O)[C@H](CCCNC(=N)N)NC2=O)CCC3)cc1 (some centres unmarked) [[^89Zr]Zr-29, metal not drawn] | -2.32 ± 0.21 | limited inertness and rapid transfer of the radiometal to EDTA | –
CC(=O)N(O)CCCCCNC(=O)CCC(=O)N(O)CCCCCNC(=O)CCC(=O)N(O)CCCCCNC(=O)CCC(=O)N(O)CCCCCNC(=O)CCC(=O)NCc1ccc(-c2nncc3c2CCC(OC(=O)NCCCC[C@@H]2NC(=O)[C@@H](Cc4ccccc4)NC(=O)[C@H](CC(=O)O)NC(=O)CNC(=O)[C@H](CCCNC(=N)N)NC2=O)CCC3)cc1 (some centres unmarked) [[^89Zr]Zr-31, metal not drawn] | -2.49 ± 0.03 | high resistance to the challenge | –
c(RGDfK) | – | – | high affinity
